We go through one substance from US20130171184A1.

For this assay, the target named is Neisseria meningitidis Hsf (Msf) of strain H44/76, expressed on meningococci (Neisseria meningitidis strain H44/76) (UniProt Q7DDJ2). The experiment in a line: ELISA, bacteria preincubated with 25 µg/ml peptide, binding to 2.5 µg/ml immobilised aVn. (In general: ELISA stands for enzyme-linked immunosorbent assay.)
Neisseria meningitidis Hsf (Msf) of strain H44/76, expressed on meningococci (Neisseria meningitidis strain H44/76), sequence (Q7DDJ2 52-591): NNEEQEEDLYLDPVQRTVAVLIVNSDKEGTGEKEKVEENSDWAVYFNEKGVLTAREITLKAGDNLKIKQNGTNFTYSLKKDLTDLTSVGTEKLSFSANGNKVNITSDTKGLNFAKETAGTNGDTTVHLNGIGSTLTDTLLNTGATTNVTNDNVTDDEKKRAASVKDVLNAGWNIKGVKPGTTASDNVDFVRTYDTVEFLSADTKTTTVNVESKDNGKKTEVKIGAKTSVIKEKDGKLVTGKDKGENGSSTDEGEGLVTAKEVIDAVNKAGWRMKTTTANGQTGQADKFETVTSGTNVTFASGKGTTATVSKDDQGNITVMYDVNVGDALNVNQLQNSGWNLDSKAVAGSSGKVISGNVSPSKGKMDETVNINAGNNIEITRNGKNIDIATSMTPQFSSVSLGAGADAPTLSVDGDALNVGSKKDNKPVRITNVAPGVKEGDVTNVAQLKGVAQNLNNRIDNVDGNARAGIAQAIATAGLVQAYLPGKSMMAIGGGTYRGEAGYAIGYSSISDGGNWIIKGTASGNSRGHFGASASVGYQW

The substance “biotinylated sulphated vitronectin peptide VA-26S (amino acids 43-68)” displayed a reduction in Msf binding to aVn of 30%.
